From paper PMC11468923, “Mechanism of degrader-targeted protein ubiquitinability” (Science Advances, 2024) come the findings set out here.

Changes are numbered by the printed parent chain. Names may count otherwise.

For assay [1], the target named is T1, wild-type ubiquitin (donor ubiquitin, Ub^D) (human, UniProt P0CG48 1-76, C terminus isopeptide-linked to K93 of UBE2R1(C93K, S138C, C191S, C223S)).
T1 construct: wild-type ubiquitin, the cut product of its precursor; Stood in the closed cryo-EM sample as part of the cross-linked conjugate m8
Nature of the assay: cryo-EM structure; closed cross-linked sample: 6 uM NEDD8-CRL2^VHL (1 equiv), MZ1 (1.5 equiv) and Brd4^BD2-Ub(G76S,K48C)-UBE2R1(C93K, S138C, C191S, C223S)-Ub (1.5 equiv), 10 min at 4 C; 20 mM Hepes, 150 mM NaCl, 0.5 mM TCEP, pH 7.5; Krios 300 keV; ~3.7 A. As to conditions: both partners purified.

Assay [2] has as its target T2, ^15N-labeled ubiquitin (human wild-type Ub residues 1 to 76) (human, UniProt P0CG48 1-76, uniformly ^15N-labeled; C terminus isopeptide-linked to K93 of UBE2R1(C93K) in the conjugate sample).
T2 construct: ubiquitin, human wild type, residues 1 to 76; also called ^15N-Ub; Ub(^15N); source: E. coli BL21(DE3) Rosetta II, ^15N autoinducing media, purified (His-Trap, TEV, SEC); not shown: His6, N-terminal, cleaved
Nature of the assay: NMR 15N-1H HSQC chemical shift perturbation; ^15N-Ub free against ^15N-Ub isopeptide-linked to UBE2R1(C93K); 150 uM, 298 K, 600 MHz; 20 mM sodium phosphate, 150 mM NaCl, 0.5 mM TCEP, 5% D2O, pH 7.0. As to conditions: both partners purified.

B1: UBE2R1(C93K, S138C, C191S, C223S) (enzyme, human, UniProt P49427 1-236, looked up)
chain: MARPLVPSSQKALLLELKGLQEEPVEGFRVTLVDEGDLYNWEVAIFGPPNTYYEGGYFKARLKFPIDYPYSPPAFRFLTKMWHPNIYETGDVKISILHPPVDDPQSGELPSERWNPTQNVRTILLSVISLLNEPNTFCPANVDASVMYRKWKESKGKDREYTDIIRKQVLGTKVDAERDGVKVPTTLAEYSVKTKAPAPDEGSDLFYDDYYEDGEVEEEADSSFGDDEDDSGTEES
modifications: K93 (C93K) isopeptide-linked to the C terminus of donor ubiquitin; C138 (S138C) cross-linked by BMOE to Ub(K48C,G76S)-Brd4^BD2
notes: UBE2R1 (also known as Cdc34), human, full length; prepared by the same method as UBE2R1(C93K); Stood in the closed cryo-EM sample as part of the cross-linked conjugate m8; also called the E2; source: E. coli BL21(DE3) Rosetta II, purified (His-Trap, ULP1, SEC)
Take B1: in assay [1], the binding result was “binds”.

B2: UBE2R1(C93K) (enzyme, human, UniProt P49427 1-236, looked up)
chain: B1 chain with C138S, S191C, S223C
modifications: K93 (C93K) isopeptide-linked to the C terminus of ^15N-labeled ubiquitin
notes: UBE2R1 (also known as Cdc34), human, full length; also called Cdc34 C93K; the E2; source: E. coli BL21(DE3) Rosetta II, purified (His-Trap, ULP1, SEC)
B2: the binding result in assay [2] was “binds”.
